Measured values reported in patent US7402575B2, “Methods of treating inflammation” (priority 2003, dated 2008).

Target: T1, lysozyme c (Lzm-S) (Canis lupus familiaris, UniProt P81709)
T1 construct: Lzm-S was purified in a manner described by Grobler et al (14); from tissue
T1 sequence (P81709 1-130): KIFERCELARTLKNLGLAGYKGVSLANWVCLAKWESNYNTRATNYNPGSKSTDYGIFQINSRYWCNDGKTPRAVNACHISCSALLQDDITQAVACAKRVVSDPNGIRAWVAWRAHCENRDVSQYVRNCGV
Experiment: Effect of enzyme treatment (of Lzm-S or of the trabeculae) on Lzm-S's depressant effect in right ventricular trabecular preparation
Format: cell-based, dog
Experimental: In subsequent experiments, the objective was to determine whether pretreatment of Lzm-S with the proteolytic enzyme proteinase-K reduced the extent to which myocardial depression developed in the in vitro preparation (7). Proteinase-K (attached to beaded agarose; Sigma Chemical, St Louis, Mo.) was added to the pure Lzm-S preparation. The effects of proteinase-K treated and nontreated Lzm-S on isometric tension were compared between the samples. Since proteinase-K is a non-specific proteolytic enzyme, a specific competitive inhibitor of lysozyme, TAC (chitotriose) was subsequently examined to determine whether it prevented the depression in isometric tension observed in the in vitro preparation (16,17).
Regardless of the type of carbohydrate structure to which Lzm-S may bind, it is possible to deglycosylate the carbohydrate structure by means of exoglycosidases in which a specific sugar residue is removed from the terminal end of the carbohydrate tree (47). […] In group 2, the trabeculae were initially bathed in sialidase (60 μl; 5 U/ml) for two hours to remove any N-acetylneuramic acid (NeuNAc) residues, after which the effect of Lzm-S was determined (all kits from Prozyme, San Leandro, Calif.; kit GE 23; Sialidase A). […]

Effect of enzyme treatment on Lzm-S's depressant activity: reduction in depressant activity
B1: Proteinase K: nonspecific proteolytic enzyme attached to beaded agarose (protein, UniProt P06873 106-384, looked up)
Proteinase K: AAQTNAPWGLARISSTSPGTSTYYYDESAGQGSCVYVIDTGIEASHPEFEGRAQMVKTYYYSSRDGNGHGTHCAGTVGSRTYGVAKKTQLFGVKVLDDNGSGQYSTIIAGMDFVASDKNNRNCPKGVVASLSLGGGYSSSVNSAAARLQSSGVMVAVAAGNNNADARNYSPASEPSVCTVGASDRYDRRSSFSNYGSVLDIFGPGTSILSTWIGGSTRSISGTSMATPHVAGLAAYLMTLGKTTAASACRYIADTANKGDLSNIPFGTVNLLAYNNYQA
modifications: attached to agarose beads
